This passage reports binding signal results from US20240409906, “INTEGRASES, LANDING PAD ARCHITECTURES, AND ENGINEERED CELLS COMPRISING THE SAME” (Asimov Inc., published 2024).

What all share (conditions): tags: C-terminal GS linker-SV40 NLS
For one data set, the target named is T1, Int21 (Streptococcus mitis B6).
T1 chain: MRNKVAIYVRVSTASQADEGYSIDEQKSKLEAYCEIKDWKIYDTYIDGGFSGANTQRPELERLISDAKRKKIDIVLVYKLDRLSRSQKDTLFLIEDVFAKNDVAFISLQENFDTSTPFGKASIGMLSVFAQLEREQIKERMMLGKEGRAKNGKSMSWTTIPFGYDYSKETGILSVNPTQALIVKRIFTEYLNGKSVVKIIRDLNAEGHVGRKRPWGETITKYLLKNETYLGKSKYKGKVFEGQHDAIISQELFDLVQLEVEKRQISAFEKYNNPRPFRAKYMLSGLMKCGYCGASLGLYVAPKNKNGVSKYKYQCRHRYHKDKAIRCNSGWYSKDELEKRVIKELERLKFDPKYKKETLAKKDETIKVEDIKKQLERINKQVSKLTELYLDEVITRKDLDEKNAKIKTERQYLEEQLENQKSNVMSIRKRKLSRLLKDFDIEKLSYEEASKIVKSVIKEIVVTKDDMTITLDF
The experiment in a line: cell_activity; attB x attP EGFP inversion reporter, HEK293FT.

The target in the next data set is T2, Int13 (Bacillus cytotoxicus NVH 391-98).
T2 chain: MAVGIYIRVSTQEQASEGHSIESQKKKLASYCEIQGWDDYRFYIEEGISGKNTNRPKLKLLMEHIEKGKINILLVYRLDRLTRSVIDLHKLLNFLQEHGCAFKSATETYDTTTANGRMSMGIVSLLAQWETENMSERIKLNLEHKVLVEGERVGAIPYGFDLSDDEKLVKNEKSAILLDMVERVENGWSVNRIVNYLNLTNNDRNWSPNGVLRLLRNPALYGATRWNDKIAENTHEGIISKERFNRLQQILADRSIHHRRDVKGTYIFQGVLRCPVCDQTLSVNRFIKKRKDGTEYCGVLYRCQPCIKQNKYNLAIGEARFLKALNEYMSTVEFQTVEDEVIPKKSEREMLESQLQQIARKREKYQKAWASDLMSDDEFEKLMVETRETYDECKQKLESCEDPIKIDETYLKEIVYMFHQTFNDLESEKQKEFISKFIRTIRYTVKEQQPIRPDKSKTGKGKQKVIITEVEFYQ
Described as above.

For a further data set, the target named is T3, Int22 (Geobacillus thermoglucosidasius C56-YS93).
T3 chain: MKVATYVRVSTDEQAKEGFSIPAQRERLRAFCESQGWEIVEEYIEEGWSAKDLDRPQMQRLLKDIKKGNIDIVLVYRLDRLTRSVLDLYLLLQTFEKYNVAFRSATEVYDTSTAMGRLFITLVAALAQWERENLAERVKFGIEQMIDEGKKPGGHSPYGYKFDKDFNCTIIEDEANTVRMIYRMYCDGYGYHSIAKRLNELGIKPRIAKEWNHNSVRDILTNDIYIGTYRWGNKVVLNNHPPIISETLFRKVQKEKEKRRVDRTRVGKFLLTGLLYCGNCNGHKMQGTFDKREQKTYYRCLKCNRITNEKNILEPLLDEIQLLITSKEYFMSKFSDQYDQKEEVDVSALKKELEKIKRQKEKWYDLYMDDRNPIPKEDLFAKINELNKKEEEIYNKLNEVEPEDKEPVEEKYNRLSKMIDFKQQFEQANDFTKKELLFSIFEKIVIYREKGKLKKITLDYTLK
The data set is described as above.

In the next data set the target is T4, Int15 (Listeria monocytogenes SLCC2372 (phage …)).
T4 chain: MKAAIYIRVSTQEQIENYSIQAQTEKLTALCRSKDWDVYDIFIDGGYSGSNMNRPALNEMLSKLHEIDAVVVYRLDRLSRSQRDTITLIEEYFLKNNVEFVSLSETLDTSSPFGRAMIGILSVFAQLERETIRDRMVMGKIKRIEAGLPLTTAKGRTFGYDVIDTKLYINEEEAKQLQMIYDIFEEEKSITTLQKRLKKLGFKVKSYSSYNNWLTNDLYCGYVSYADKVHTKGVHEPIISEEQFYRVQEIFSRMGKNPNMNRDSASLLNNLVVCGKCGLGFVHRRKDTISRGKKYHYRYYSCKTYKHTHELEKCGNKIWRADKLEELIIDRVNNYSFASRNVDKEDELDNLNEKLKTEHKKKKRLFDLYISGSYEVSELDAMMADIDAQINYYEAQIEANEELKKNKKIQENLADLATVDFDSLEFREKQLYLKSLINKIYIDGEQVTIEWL
Put plainly: cell_activity.

In a further data set the target is T5, Int18 (Streptococcus pneumoniae JJA).
T5 chain: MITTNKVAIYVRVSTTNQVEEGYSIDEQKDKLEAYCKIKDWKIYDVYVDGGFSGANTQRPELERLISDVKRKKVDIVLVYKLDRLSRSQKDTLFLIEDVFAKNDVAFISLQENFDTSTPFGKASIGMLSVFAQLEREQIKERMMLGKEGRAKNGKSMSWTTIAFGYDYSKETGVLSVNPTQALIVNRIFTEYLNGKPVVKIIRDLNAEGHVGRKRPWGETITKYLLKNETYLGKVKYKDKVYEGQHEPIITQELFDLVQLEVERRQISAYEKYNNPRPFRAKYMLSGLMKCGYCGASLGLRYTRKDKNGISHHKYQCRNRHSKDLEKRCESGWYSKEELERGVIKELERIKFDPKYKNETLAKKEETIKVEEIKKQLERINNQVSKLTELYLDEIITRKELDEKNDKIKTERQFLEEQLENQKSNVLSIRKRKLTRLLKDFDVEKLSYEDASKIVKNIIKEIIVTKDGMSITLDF
Put plainly: cell_activity.

In the next data set the target is T6, Int14 (Listeria innocua Clip11262).
T6 chain: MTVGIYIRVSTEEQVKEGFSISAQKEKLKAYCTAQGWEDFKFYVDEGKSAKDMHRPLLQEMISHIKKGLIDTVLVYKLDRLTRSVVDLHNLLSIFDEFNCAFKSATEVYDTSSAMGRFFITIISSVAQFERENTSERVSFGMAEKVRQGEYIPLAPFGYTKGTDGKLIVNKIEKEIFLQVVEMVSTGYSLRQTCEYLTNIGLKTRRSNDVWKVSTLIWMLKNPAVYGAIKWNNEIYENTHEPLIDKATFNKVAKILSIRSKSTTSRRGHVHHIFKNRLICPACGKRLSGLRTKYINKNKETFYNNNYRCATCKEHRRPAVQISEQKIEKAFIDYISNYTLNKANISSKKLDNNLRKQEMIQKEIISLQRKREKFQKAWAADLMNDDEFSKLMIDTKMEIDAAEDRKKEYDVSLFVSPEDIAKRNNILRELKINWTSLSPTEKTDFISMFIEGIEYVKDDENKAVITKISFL
Put plainly: cell_activity; attB x attP EGFP inversion reporter, HEK293FT.

In another data set the target is T7, Int16 (Enterococcus faecalis D32).
T7 chain: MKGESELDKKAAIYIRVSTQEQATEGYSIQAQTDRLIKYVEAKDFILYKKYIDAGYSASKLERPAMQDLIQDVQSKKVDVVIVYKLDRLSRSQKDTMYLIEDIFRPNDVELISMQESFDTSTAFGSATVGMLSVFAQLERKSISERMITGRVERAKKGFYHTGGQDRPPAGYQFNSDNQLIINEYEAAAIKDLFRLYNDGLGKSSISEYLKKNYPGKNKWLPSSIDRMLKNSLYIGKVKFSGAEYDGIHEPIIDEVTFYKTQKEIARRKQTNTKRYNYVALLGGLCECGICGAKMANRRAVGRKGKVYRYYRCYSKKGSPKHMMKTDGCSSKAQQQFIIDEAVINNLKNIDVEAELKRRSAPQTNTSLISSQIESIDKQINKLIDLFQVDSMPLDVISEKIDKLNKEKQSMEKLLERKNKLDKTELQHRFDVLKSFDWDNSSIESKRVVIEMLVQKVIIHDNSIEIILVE
Put plainly: cell_activity.

B1: Int21 attB (dsDNA)
DNA 1: TAGGAGGAAAAAATATGTATAATAAAGTTATCATGATTGGGCGTTTGACGTCTACACCAGAAT
DNA 2: ATTCTGGTGTAGACGTCAAACGCCCAATCATGATAACTTTATTATACATATTTTTTCCTCCTA
For the molecule B1, in the data set with Int21, the binding signal was 0.184 fraction of Bxb1.

B2: Int13 attP (dsDNA)
DNA 1: CAATAACGGTTGTATTTGTAGAACTTGACCAGTTGTTTTAGTAACATAAATACAACTCCGAATA
DNA 2: TATTCGGAGTTGTATTTATGTTACTAAAACAACTGGTCAAGTTCTACAAATACAACCGTTATTG
On to B2, for which the binding signal with Int13 is 0.295 fraction of Bxb1.

B3: Int22 attP (dsDNA)
DNA 1: TTATAAACCTGTTTTAAAGTTAACTTTACATGCCTAACATTAACTCTTATACAGGTTAAGGT
DNA 2: ACCTTAACCTGTATAAGAGTTAATGTTAGGCATGTAAAGTTAACTTTAAAACAGGTTTATAA
B3: the binding signal in the data set with Int22 was 0.945 fraction of Bxb1.

B4: Int21 attP (dsDNA)
DNA 1: GTTAATAATATGTATTTAAGTCTAACTTATCATGACAAATTTGACTAAAATACAAAAAGGC
DNA 2: GCCTTTTTGTATTTTAGTCAAATTTGTCATGATAAGTTAGACTTAAATACATATTATTAAC
For B4, the binding signal with Int21 was 0.184 fraction of Bxb1.

B5: Int15 attB (dsDNA)
DNA 1: CTGTAACTTTTTCGGATCAAGCTATGAGGGACGCAAAGAGGGAACTAAACACTTAATTGGTG
DNA 2: CACCAATTAAGTGTTTAGTTCCCTCTTTGCGTCCCTCATAGCTTGATCCGAAAAAGTTACAG
With B5, in the data set with Int15, the binding signal was 1.86 fraction of Bxb1.

B6: Int18 attP (dsDNA)
DNA 1: TATTTCTGTATTTTAGTCAAAGTAATTAAGATAAGTTAGAGTTAGTAACAGTATTTTAACTT
DNA 2: AAGTTAAAATACTGTTACTAACTCTAACTTATCTTAATTACTTTGACTAAAATACAGAAATA
B6: in the data set with Int18, the binding signal is 1.76 fraction of Bxb1.

B7: Int18 attB (dsDNA)
DNA 1: TCTGGTGTAGACGTTAAACGTCCAATCAAGATAACTTTATTATACATATTTTCTTCCTCCTA
DNA 2: TAGGAGGAAGAAAATATGTATAATAAAGTTATCTTGATTGGACGTTTAACGTCTACACCAGA
For the molecule B7, the binding signal with Int18 is 1.76 fraction of Bxb1.

B8: Int14 attB (dsDNA)
DNA 1: TTATTGCAAGAAAAATGGGTTATAAGTACACATCAGGTTATAGTAATATCGAAAAAGGAAGC
DNA 2: GCTTCCTTTTTCGATATTACTATAACCTGATGTGTACTTATAACCCATTTTTCTTGCAATAA
Consider B8, for which the binding signal with Int14 was 0.248 fraction of Bxb1.

B9: Int14 attP (dsDNA)
DNA 1: TTATATAAAATAGTGTTTTTGTAAAGTACACATCACCATATTTGACAAAAAACCTATAAATA
DNA 2: TATTTATAGGTTTTTTGTCAAATATGGTGATGTGTACTTTACAAAAACACTATTTTATATAA
As for B9, the binding signal with Int14 was 0.248 fraction of Bxb1.

B10: Int16 attP (dsDNA)
DNA 1: GTATCTTGATGTACAACATTACTCTTTATTTTCAAATACAGAATAATGTTGCATATAATATT
DNA 2: AATATTATATGCAACATTATTCTGTATTTGAAAATAAAGAGTAATGTTGTACATCAAGATAC
In the case of B10, the binding signal in the data set with Int16 was 0.21 fraction of Bxb1.

B11: Int13 attB (dsDNA)
DNA 1: CGCATACATTGTTGTTGTTTTTCCAGATCCAGTTGGTCCTGTAAATATAAGCAATCCATGTGAGT
DNA 2: ACTCACATGGATTGCTTATATTTACAGGACCAACTGGATCTGGAAAAACAACAACAATGTATGCG
As to B11, the binding signal in the data set with Int13 was 0.295 fraction of Bxb1.

B12: Int15 attP (dsDNA)
DNA 1: TTGTTTAGTCCCTCGTTTTCTCTCGTTGGACGGAGACGAATCGAGAAACTAAAATTATAAAT
DNA 2: ATTTATAATTTTAGTTTCTCGATTCGTCTCCGTCCAACGAGAGAAAACGAGGGACTAAACAA
Consider B12, for which the binding signal with Int15 was 1.86 fraction of Bxb1.

B13: Int22 attB (dsDNA)
DNA 1: CAAGAAACGTTCCGTCTGTTTGTGTCAGCTGCGCGAAATTAATGACCGGATCGTTTGTTCC
DNA 2: GGAACAAACGATCCGGTCATTAATTTCGCGCAGCTGACACAAACAGACGGAACGTTTCTTG
On to B13, for which the binding signal with Int22 is 0.945 fraction of Bxb1.

B14: Int16 attB (dsDNA)
DNA 1: TTCTGGACCATGATGCGCCACTTCCGAAATTTCAAAAAGATCAGTGGTCAAACGGCTCATTA
DNA 2: TAATGAGCCGTTTGACCACTGATCTTTTTGAAATTTCGGAAGTGGCGCATCATGGTCCAGAA
Take B14: in the data set with Int16, the binding signal is 0.21 fraction of Bxb1.
